Results on one substance are retold here after PMC8261802.

The target in experiment [1] is PEDV/S(1–1320) + CMP + Tags (porcine epidemic diarrhea virus (PEDV), strain 83P-5 | chicken). As to the kind of experiment: native gel or EMSA; Blue-native PAGE, 3 to 12% Bis-Tris NativePAGE gel, 115 min at 150 V, CBB stain; purified S protein.
Experiment [2] shares this target. The experiment is described as follows: SEC; Superose 6 increase 10/300 GL in 1 x PBS; markers thyroglobulin 669 kDa, ferritin 440 kDa, aldolase 158 kDa.

As for PEDV/S(1–1320) + CMP + Tags, the stoichiometry N in experiment [1] and in experiment [2] was 3 throughout.

In general, stoichiometry N refers to a count of units in the complex or per binding partner.
